Reference: US20210261605A1
Substitutions are numbered along the chain they refer to.

B1: FcR35d-containing Fc-binding protein (SEQ ID NO: 7) (receptor)
chain: KIEEAMGMRTGDMPKAEVILEPPWNRVLEQDSVTLKCRGAHSPDDDSTQWFHNERLIPSQASSFIIDSASVDDSGEYRCQTSLSTLSDPVQLEVHIGWLLLQAPRWEFVEGEPIHLRCHSWRNTALHKVMFLQNGKVRKYFHHNSDFVIPKATLEDSGSYSCRGLVGRKKVSSGAVDITVTQGGHHHHHH
B2: FcR36a-containing Fc-binding protein (SEQ ID NO: 11) (receptor)
chain: B1 chain with V166A
B3: FcR35c-containing Fc-binding protein (SEQ ID NO: 5) (receptor)
chain: B1 chain with R55S, D72E, D88E, Q91L, K170N, G174E, D177E, Q182P
B4: FcR36i-containing Fc-binding protein (SEQ ID NO: 9) (receptor)
chain: B1 chain with V166I
B5: FcR9_I (SEQ ID NO: 24), Fc-binding protein containing the amino acid substitution Val192Ile (receptor)
chain: KIEEAMGMRTEDLPKAEVILEPQWNRVLEKDSVTLKCRGAYSPEDNSTQWFHNESLISSQASSYLIDAATVDDSGEYRCQTSLSTLSDPVQLEVHIGWLLLQAPRWEFKEGDPIHLRCHSWKNTALHKVTYLQNGKGRKYFHHNSDFYIPKATLKDSGSYSCRGLIGSKNVSSETVNITITQGGHHHHHH
B6: FcR9_F, Fc-binding protein having phenylalanine substituting for valine at position 192 of FcR9 (SEQ ID NO: 20) (receptor)
chain: B5 chain with I166F
B7: FcR9_A (SEQ ID NO: 26), Fc-binding protein containing the amino acid substitution Val192Ala (receptor)
chain: B5 chain with I166A
B8: Fc-binding protein FcR9 (SEQ ID NO: 20) (receptor)
chain: B5 chain with I166V

Target: IgG1 (product of Sigma-Aldrich)
Assay: SPR (Biacore T100), Fc-binding protein immobilized on CM5 chip, IgG1 in flow

| Binder | Kd [nM] | koff [s⁻¹] | kon [M⁻¹ s⁻¹] |
| --- | --- | --- | --- |
| B1 | 39 | 0.031 | 810000 |
| B2 | 95 | 0.13 | 1.4e+06 |
| B3 | 40 | 0.022 | 540000 |
| B4 | 43 | 0.038 | 900000 |
| B5 | 60 | 0.012 | 200000 |
| B6 | 3300 | 0.3 | 90000 |
| B7 | 36 | 0.0035 | 100000 |
| B8 | 77 | 0.031 | 410000 |
